Experimental data published in patent publication EP4209511A1.

T1: human CD84 on cells (human) (UniProt Q9UIB8)
T1 sequence (looked up): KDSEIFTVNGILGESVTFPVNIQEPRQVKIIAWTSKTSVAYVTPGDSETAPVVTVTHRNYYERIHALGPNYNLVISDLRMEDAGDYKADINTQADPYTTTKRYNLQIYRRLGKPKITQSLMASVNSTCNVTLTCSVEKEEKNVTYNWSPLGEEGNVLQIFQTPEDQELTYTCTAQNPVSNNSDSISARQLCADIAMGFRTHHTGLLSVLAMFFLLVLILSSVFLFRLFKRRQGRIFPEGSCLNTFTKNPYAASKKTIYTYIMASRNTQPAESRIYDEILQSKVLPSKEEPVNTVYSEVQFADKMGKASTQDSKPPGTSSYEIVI

T2: Human CD84 produced by mammalian cells (human) (UniProt Q9UIB8)
T2 sequence (looked up): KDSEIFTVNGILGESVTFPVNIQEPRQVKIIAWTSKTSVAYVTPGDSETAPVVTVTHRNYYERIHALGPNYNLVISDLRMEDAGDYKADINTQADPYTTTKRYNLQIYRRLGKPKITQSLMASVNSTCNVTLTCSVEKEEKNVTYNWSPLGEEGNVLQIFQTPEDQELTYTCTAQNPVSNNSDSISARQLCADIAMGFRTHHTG


Columns and labels:
[1] = biological target: T1, human CD84 on cells (human); assay: flow cytometry, hybridoma supernatant at equal antibody concentration, monocytes
[2] = biological target: T1, human CD84 on cells (human); assay: flow cytometry, hybridoma supernatant at equal antibody concentration, Raji cells
[3] = biological target: T1, human CD84 on cells (human); assay: flow cytometry, hybridoma supernatant at equal antibody concentration, Ramos cells
[4] = biological target: T1, human CD84 on cells (human); assay: flow cytometry, hybridoma supernatant at equal antibody concentration, lymphocytes
[5] = biological target: T1, human CD84 on cells (human); assay: flow cytometry, hybridoma supernatant at equal antibody concentration, 300.19-CD84+ cells
[6] = biological target: T2, Human CD84 produced by mammalian cells (human); assay: monoclonal phage ELISA, plate coated with CD84 antigen, anti-phage HRP antibody

Monocyte binding [1]	Raji binding [2]	Ramos binding [3]	Lymphocyte binding [4]	300.19-CD84 binding [5]	ELISA signal on antigen (Ag), read at 450 nm (absorbance at 450 nm) [6]	Binder
53.9%	45.9%	28.3%	16.6%	93.5%	–	GYCD84.3.298 (antibody, mouse IgG1, V domains shown) VH: QVTLKESGPGILQPSQTLSLTCSFSGFSLSTSGMGVGWIRQPSGKGLEWLAHIWWDDVKRYNPALRSRLTISKDTSSSQVFLNIASVDTADTATYYCTRIAVTYFFDFWGQGTTLTVSS VL: DIQMTQSPASLSASVGETVTITCRASENIFSSFAWYQQKRGRSPQLLVYNARTLAEGVPSRFSGSGSGTQFSLKINSLQPEDFGTYFCQHHYASPFTFGSGTELGVK
72%	97.6%	73.4%	24.4%	92.5%	–	152-1D5 (antibody, mouse IgG1, V domains shown) VH: QVQLQQPGAEVVQPGTSVKLSCKASGYNFTNYWINWVKLRPGQGLEWIGDIYPVSGTTNYNEKFKRKATLTVDTSSSTGNMQLSSLASEDSALYYCASGTGRFAYWGQGTLVTVSA VL: DIVLTQSPASLAVSLGQRATISCRASQSVSTSSYSYMHWYQQKPGQPPKLLIKFASNLESGVPARFSGSGSGTDFTLNIHPVEEEDTATYYCQHSWEIPYTFGGGTKLEIK
–	–	–	–	97.7%	–	GYCD84.1-97 (antibody, mouse IgG2a, V domains shown) VH: QVQLQQPGAELVKPGTSVKLSCKASGYNFTSYWINWVKLRPGQGLEWIGDIYLGSGSTNYNEKFKSKATLTVDTSSSSAYMQLSSLVSEDSALYYCATSGGYLGYWGQGTTLTVSS VL: DIVLTQSPASLAVSLGQRATISCRASQSVSTSSYSYMHWYQQKPGQPPKLLIKFASNLESGVPARFSGSGSGTDFTLNIHPVEEEDTATYYCQHSWEIPYTFGGGTKLEIK
76.1%	99.9%	80.2%	28.7%	98.1%	–	GYCD84.1-226 (antibody, mouse IgG1, V domains shown) VH: QVQLQQPGAELVKPGTSVKLSCKASGYNFTRYWINWVKLRPGQGLEWIGDIYPGSGSTNYNEKFKSKATLTVDTSSSTAYMQLSRLASEDSALYYCARDTTIAYWGQGTLVTVSA VL: DIVLTQSPTSLAVSLGQRATISCRASQSVTTSRYSYMHWYQQKPGQPPKLLIKFASNLESGVPARFSGSGSGTDFTLNIHPVEEEDTATYYCQHSWEIPYTFGGGTKLEIK
–	–	–	–	–	0.696	R3-H3 (scFv) scFv: EVQLVESGGGLVQPGGSLRLSCAASGFTFSDNAMSWVRQAPGKGLEWVSAISGTGRTTYYADSVKGRFTISRDNSKNTLYLQMNSLRAEDTAVYYCAKWDCSDGRCYWAYWGQGTLVTVSSGGGGSGGGGSGGGGSGGGGASEIVLTQSPLSLPVTLGQPASISCRSSQSLVYSDGDTYLNWFQQRPGQSPRRLIYKVSNRDSGVPDRFSGSGSGTDFTLKISRVEAEDVGVYYCMQGTHWPPNTFGQGTRLEIK
64.8%	73.9%	35.1%	26.8%	93.2%	–	GYCD84.5.171 (antibody, mouse IgG1, V domains shown) VH: EVQLVESGGGLVQPKGSLKLACAASGFTFNIYAMNWVRQAPGKGLEWVARIRSKSNNYARFYADSVKDRFTISRDDSQSMLYLQMNNLKTEDTAMYYCVRPLRSYFSMDYWGQGTSVTVSS VL: SIVMTQSPKSMSMSVGERVTLSCKASENVDTYVSWYQQKPEQSPKLLIYGASNRYTGVPDRFTGSGSATDFTLTISSVKAEDLADYHCGQTYSYPWTFGGGTKLEIK
41.3%	30.3%	31.2%	13.6%	93.9%	–	GYCD84.1-108 (antibody, mouse IgG2a, V domains shown) VH: QVQLQQSGAELVRPGTSVKMSCKAAGYTFTNYWIGWVRQRPGHGLEWIGDIYPGGGYTNYNENFKGKATLTADTSSSTAYMQLSSLTSEDSAIYYCARSTTYYSSYWCFDVWGPGTTVTVSS VL: DIVMTQSPSSLSVSAGEKVTMSCKSSQSLLNSGNQANYLAWYQQKPGQPPKLLINGASTRESGVPDRFTGSGSGTDFTLTISSVQAEDLAVYYCQNDHSYPFTFGSGTKLEIK
72.7%	99.1%	91.3%	24.9%	83%	–	GYCD84.3.89 (antibody, mouse IgG1, V domains shown) VH: EVKLLESGGGLVQPGGSLKLSCAASGFGFSRSWMSWVRQAPGKGLEWIGEINPDSSTINYTPSLKDKFIISRDNAKNTLFLQMSKVRSEDTALYYCATFYDGYSIYWYFDVWGAGTTVTVSS VL: DVLMTQTPLSLPVSLGDQASISCRSSQSIVHSNGDTYLEWYLQKPGQSPKLLIYKVSNRFSGVPDRFSGSGSGTDFTLKISRVEAEDLGVYYCFQGSHVPRTFGGGTKLEIK
–	–	–	–	94.2%	–	GYCD84.1-207 (antibody, mouse IgG1, V domains shown) VH: EVKLLESGGGLVQPGGSLKLSCAASGFDFSRYWMSWVRQAPGKGLEWIGEINPDSSTINYTPSLKDKFIISRDNAKNTLYLQMSKVRSEDTALYYCARPGPTVVATYWYFDVWGAGTTVTVSS VL: DVLMTQTPLSLPVSLGDQASISCRSSQSIVHSNGNTYLEWYLQKPGQSPKLLIYKVSSRFSGVPDRFSGSASGTDFTLKISRVEAEDLGVYYCFQGSHVPRTFGGGTKLEIK
78.2%	99.5%	78.6%	28.7%	99%	–	GYCD84.2.32 (antibody, mouse IgG1, V domains shown) VH: EVQLQQSGPELEKPGASVKISCKASGYSFTGYNMNWVKQSNGKSLEWIGNIDPYYGGTNYNQKFKGKATLTVDKSSSTAYMQLKSLTSEDSAVYYCARGLLSGSFPYWGQGTLVTVSA VL: DIQMTQSPASLSASVGETVTITCRASENIYSYLAWYQQKQGKSPQLLVYNAKTLAEGVPSRFSGSGSGTQFSLKINSLHPEDFGSYFCQHHYGSPLTFGAGTKLEVK
64.4%	91.4%	59%	19%	92.6%	–	GYCD84.1-7 (antibody, mouse IgG1, V domains shown) VH: QVTLKESGPGILQPSQTLSLTCSFSGFSLSTSGMGVGWIRQPSGKGLEWLAHIWWDDVKRYNPALKSRLTISKDTSSSQVFLKIASVDTADTATYYCARMRTSYYFDYWGQGTTLTVSS VL: DIQMTQSPASLSASVGETVTITCRASENIFSSLAWYQQRQGKSPQLLVYNAKTLAEGVPSRFSGSGSGTQFSLKINSLQPEDFGSYYCQHHYATPFTFGSGTKLEIK
–	–	–	–	–	2.4	R3-G7 (scFv) scFv: QVQLVESGGGVVQPGRSLRLSCTASGFTFSSYPMHWVRQAPGKGLEWVAAISYHGRNKFYADSVKGRFTISRDDLRSTLYLQMNNLKADDTAVYSCARDRDATPGGTGVGNHGMAVWGQGTTVTVSSGGGGSGGGGSGGGGSGGGGASEIVLTQSPLSLPVTPGEPASISCKSSQSLLHSSGYNYLDWYLQKPGQSPQLLIHMGSNRASGVPARFSGSGSGTDFTLRISRVEAEDVGVYYCMQGLQTPPTFGGGTKLEIK
77.5%	97.5%	66.3%	25.4%	96.3%	–	GYCD84.2.27 (antibody, mouse IgG1, V domains shown) VH: QVTLKESGPGILQPSQTLSLTCSFSGFSLTTSGMGVGWIRQPSGKGLEWLAHIWWDDVKRYNPALKSRLTISKDTSSSQVFLKIASVDTADTASYYCARMSTSYYFDYWGQGTTLTVSS VL: DIVMTQSHKFMSTSLGDRVSISCKASQSLFTSVAWYQQKPGQSPKLLIYSASYRYTGVPDRFTGSGSGTDFTFTISSVQAEDLAVYYCQQHYSSPFTFGSGTKLGIK
